Usually Kd stands for the constant that tells how readily two partners part at equilibrium. A higher Kd goes with weaker binding.

The target in data set [1] is T1, Pit-1ΔN (UniProt P28069 105-291).
T1 sequence: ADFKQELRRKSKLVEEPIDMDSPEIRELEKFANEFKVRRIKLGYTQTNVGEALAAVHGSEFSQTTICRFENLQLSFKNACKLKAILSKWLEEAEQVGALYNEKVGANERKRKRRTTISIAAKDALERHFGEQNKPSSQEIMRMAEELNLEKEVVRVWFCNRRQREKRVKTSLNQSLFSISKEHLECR
Nature of the data set: competition.

The target in data set [2] is T1, Pit-1ΔN. Put plainly: competition. The source holds these as a separate data set.
Data set [3] deals with T2, Pit-1wt (UniProt P28069 1-291).
T2 sequence: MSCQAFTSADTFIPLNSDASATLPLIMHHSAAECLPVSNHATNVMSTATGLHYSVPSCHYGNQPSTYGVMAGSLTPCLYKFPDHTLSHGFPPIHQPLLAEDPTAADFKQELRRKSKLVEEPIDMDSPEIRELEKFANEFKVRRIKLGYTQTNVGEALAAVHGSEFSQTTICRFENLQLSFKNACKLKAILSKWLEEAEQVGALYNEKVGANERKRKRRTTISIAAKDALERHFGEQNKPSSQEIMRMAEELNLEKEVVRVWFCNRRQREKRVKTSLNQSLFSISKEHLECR
Nature of the data set: fluorescence anisotropy. Background: Polarisation of emitted light reports the rotation of a fluorescent probe.

The target of data set [4] is T1, Pit-1ΔN. Nature of the data set: fluorescence anisotropy.
In data set [5] the target is T1, Pit-1ΔN. Nature of the data set: competition. The source holds these as a separate data set.
The target of the next data set is T3, Pit-1ΔNΔC (UniProt P28069 124-273).
T3 sequence: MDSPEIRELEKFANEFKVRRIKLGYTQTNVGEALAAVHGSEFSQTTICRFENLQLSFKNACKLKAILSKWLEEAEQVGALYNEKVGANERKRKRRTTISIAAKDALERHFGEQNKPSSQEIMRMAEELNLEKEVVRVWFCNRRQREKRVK
Nature of the data set: gel filtration. On the technique in general: SEC sorts molecules by how far they enter the pores of the column.

In another data set the target is T4, UHRF1 (UniProt Q96T88 1-793).
T4 sequence: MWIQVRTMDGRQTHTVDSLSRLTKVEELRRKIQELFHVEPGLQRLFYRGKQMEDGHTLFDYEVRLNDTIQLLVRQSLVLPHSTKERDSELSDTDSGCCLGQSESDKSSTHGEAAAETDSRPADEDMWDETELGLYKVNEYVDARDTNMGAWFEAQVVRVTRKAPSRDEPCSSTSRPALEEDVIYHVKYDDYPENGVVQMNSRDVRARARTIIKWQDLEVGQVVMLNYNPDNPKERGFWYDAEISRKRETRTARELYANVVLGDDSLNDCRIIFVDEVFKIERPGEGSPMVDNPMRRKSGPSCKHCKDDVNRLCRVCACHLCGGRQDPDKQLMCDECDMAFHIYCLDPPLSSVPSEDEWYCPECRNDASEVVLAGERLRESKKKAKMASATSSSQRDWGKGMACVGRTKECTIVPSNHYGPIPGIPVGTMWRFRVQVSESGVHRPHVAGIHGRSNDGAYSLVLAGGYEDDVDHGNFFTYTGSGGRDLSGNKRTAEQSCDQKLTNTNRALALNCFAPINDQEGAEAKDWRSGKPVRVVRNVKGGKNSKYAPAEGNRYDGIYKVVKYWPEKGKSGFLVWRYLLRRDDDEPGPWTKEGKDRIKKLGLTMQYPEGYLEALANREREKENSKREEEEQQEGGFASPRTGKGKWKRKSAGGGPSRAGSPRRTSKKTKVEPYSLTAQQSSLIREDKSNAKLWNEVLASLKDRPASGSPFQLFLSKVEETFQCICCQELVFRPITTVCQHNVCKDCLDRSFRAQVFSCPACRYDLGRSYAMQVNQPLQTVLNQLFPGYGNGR
Put plainly: EMSA. On the technique in general: In EMSA bound probe runs differently from free probe, usually more slowly.

The target of data set [6] is T2, Pit-1wt. Nature of the data set: EMSA.
The target of data set [7] is T1, Pit-1ΔN. Nature of the data set: fluorescence anisotropy. This is another data set of the same source.

B1: u4x (4xCATT) (dsDNA)
DNA 1: CACCCATTCATTCATTCATTCAG
DNA 2: CTGAATGAATGAATGAATGGGTG
Consider B1, for which, in the data set with Pit-1ΔN [1], the binding result is given as “binds”.

B2: u5x99 (dsDNA)
DNA 1: TGTCCTCTTCCTGCTATGTCATGGCTTATCTTCTTTCACCCATTCATTCATTCATTCATTCAGCAGTATTAGTCAATGTCTCTTGTATGCCTGGCACCT
DNA 2: AGGTGCCAGGCATACAAGAGACATTGACTAATACTGCTGAATGAATGAATGAATGAATGGGTGAAAGAAGATAAGCCATGACATAGCAGGAAGAGGACA
For B2, in the data set with Pit-1ΔN [2], the binding result is on record as “binds”.

B3: f8x (dsDNA)
DNA 1: CACCCATTCATTCATTCATTCATTCATTCATTCATTCAG
DNA 2: CTGAATGAATGAATGAATGAATGAATGAATGAATGGGTG
As for B3, the Kd with Pit-1wt [3] is 35 nM; with Pit-1ΔN [4], 27 nM.

B4: uhGH (dsDNA)
DNA 1: GAGGAGCTTCTAAATTATCCATTAGCACAAGCCCGTCAGTGGCCCCATGCATAAATGTACACAGAAACAG
DNA 2: CTGTTTCTGTGTACATTTATGCATGGGGCCACTGACGGGCTTGTGCTAATGGATAATTTAGAAGCTCCTC
Take B4: the binding result in the data set with Pit-1ΔN [5] is listed as “binds”.

B5: 4xCATT crystallization duplex (f4xCrystF/f4xCrystRC) (dsDNA)
DNA 1: CCATTCATTCATTCATTCGGA
DNA 2: CCGAATGAATGAATGAATGGT
In the case of B5, the binding result with Pit-1ΔNΔC is “binds”.

B6: 8xCATT 111 biotin (dsDNA)
DNA 1: TGTCCTCTTCCTGCTATGTCATGGCTTATCTTCTTTCACCCATTCATTCATTCATTCATTCATTCATTCATTCAGCAGTATTAGTCAATGTCTCTTGTATGCCTGGCACCT
DNA 2: AGGTGCCAGGCATACAAGAGACATTGACTAATACTGCTGAATGAATGAATGAATGAATGAATGAATGAATGGGTGAAAGAAGATAAGCCATGACATAGCAGGAAGAGGACA
As to B6, the dissociation constant Kd with UHRF1 is > 1000 nM. Also, the binding result with Pit-1wt [6] is reported as “binds”.

B7: u8x111 (dsDNA)
DNA 1: TGTCCTCTTCCTGCTATGTCATGGCTTATCTTCTTTCACCCATTCATTCATTCATTCATTCATTCATTCATTCAGCAGTATTAGTCAATGTCTCTTGTATGCCTGGCACCT
DNA 2: AGGTGCCAGGCATACAAGAGACATTGACTAATACTGCTGAATGAATGAATGAATGAATGAATGAATGAATGGGTGAAAGAAGATAAGCCATGACATAGCAGGAAGAGGACA
With B7, in the data set with Pit-1ΔN [2], the binding result was “binds”.

B8: f0x (dsDNA)
DNA 1: TGTCCTCTTCCTGCTATGTCATGGCTTATCTTCTTTCACCCAGCAGTATTAGTCAATGTCTCTTGTATGCCTGGCACCT
DNA 2: AGGTGCCAGGCATACAAGAGACATTGACTAATACTGCTGGGTGAAAGAAGATAAGCCATGACATAGCAGGAAGAGGACA
Take B8: the affinity in the data set with Pit-1wt [3], expressed as Kd, was 167 nM.

B9: f4x (dsDNA)
DNA 1: CACCCATTCATTCATTCATTCAG
DNA 2: CTGAATGAATGAATGAATGGGTG
Regarding B9, the binding result with Pit-1ΔN [7] is recorded as “binds”.

Source of the values: publication PMC5778499.
